Measurements as given in article PMC4318798 (Nature structural & molecular biology, 2015).
Like-named read-outs stand apart in the source and are kept apart here.

Assays:
SEC-MALS [1] = target: the molecule itself; assay: SEC-MALS
SEC-MALS [2] = target: the molecule itself; assay: SEC-MALS; remark: listed apart in the source
SEC-MALS [3] = target: the molecule itself; assay: SEC-MALS; remark: listed apart in the source
crystal structure = target: the molecule itself; assay: crystal structure
Ctp1 61-294 = target: T1, Ctp1 61-294 (Schizosaccharomyces pombe, UniProt O74986 61-294); assay: EMSA
T1 sequence: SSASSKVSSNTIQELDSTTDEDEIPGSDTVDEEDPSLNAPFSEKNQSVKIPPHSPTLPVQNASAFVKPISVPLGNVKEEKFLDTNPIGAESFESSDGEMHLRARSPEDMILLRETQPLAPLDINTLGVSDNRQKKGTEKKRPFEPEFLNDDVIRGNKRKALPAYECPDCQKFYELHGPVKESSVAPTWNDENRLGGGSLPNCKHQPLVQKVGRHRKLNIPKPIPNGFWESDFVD

Ctp1 R275A = target: T2, Ctp1 R275A (Schizosaccharomyces pombe, UniProt O74986 1-294, R275A); assay: EMSA
T2 sequence: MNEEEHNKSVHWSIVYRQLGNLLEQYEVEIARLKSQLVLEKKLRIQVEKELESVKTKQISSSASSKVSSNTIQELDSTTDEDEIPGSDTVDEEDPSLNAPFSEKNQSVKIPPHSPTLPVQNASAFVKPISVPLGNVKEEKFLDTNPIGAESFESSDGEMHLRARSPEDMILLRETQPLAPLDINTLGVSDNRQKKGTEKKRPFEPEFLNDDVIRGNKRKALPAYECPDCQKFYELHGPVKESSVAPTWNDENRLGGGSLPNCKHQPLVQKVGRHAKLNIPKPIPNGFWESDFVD

Ctp1 K231A = target: T3, Ctp1 K231A (Schizosaccharomyces pombe, UniProt O74986 1-294, K231A); assay: EMSA
T3 sequence: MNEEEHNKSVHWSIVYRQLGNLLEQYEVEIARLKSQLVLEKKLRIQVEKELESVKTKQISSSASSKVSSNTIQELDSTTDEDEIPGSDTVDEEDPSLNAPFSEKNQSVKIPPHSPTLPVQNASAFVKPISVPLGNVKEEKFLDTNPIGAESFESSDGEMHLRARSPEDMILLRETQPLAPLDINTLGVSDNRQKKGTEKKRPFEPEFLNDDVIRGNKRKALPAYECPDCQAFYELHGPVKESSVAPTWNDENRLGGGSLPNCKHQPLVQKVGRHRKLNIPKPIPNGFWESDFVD

Ctp1 R273A = target: T4, Ctp1 R273A (Schizosaccharomyces pombe, UniProt O74986 1-294, R273A); assay: EMSA
T4 sequence: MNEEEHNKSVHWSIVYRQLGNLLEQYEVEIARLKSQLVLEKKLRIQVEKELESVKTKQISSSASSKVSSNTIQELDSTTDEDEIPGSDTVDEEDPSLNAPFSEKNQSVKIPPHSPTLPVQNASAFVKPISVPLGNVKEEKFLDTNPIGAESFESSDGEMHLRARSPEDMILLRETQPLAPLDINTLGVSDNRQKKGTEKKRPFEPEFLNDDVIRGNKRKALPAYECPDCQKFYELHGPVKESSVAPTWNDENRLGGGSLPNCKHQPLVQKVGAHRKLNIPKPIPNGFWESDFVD

Ctp1 K219A = target: T5, Ctp1 K219A (Schizosaccharomyces pombe, UniProt O74986 1-294, K219A); assay: EMSA
T5 sequence: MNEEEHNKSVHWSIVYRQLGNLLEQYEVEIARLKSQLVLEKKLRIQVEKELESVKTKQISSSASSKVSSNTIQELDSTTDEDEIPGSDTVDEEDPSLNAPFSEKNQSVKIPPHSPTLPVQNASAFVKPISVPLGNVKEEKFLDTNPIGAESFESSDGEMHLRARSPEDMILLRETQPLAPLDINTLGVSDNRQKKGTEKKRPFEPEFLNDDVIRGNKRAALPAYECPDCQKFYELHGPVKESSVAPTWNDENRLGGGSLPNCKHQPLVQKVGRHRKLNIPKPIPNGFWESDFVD

Ctp1 K276A = target: T6, Ctp1 K276A (Schizosaccharomyces pombe, UniProt O74986 1-294, K276A); assay: EMSA
T6 sequence: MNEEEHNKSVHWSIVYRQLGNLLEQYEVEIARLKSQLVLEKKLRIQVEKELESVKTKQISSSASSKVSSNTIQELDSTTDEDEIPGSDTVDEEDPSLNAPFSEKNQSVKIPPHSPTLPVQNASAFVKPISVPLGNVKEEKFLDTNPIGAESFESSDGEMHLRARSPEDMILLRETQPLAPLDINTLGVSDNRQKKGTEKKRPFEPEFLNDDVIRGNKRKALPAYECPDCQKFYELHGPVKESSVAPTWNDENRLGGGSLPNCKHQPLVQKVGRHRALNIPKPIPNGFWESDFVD

Ctp1 151-294 = target: T7, Ctp1 151-294 (Schizosaccharomyces pombe, UniProt O74986 151-294); assay: EMSA
T7 sequence: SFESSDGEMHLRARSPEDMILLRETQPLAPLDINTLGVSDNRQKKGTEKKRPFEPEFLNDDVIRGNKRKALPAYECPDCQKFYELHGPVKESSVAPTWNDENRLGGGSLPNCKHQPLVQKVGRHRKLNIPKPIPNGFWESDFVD

Ctp1 1-150 = target: T8, Ctp1 1-150 (Schizosaccharomyces pombe, UniProt O74986 1-150); assay: EMSA
T8 sequence: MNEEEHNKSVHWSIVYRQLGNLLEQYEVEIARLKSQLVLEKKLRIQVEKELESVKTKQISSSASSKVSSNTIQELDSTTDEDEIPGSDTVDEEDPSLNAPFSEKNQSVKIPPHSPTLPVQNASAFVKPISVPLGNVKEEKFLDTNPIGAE

Ctp1 WT = target: T9, Ctp1 WT (Schizosaccharomyces pombe, UniProt O74986 1-294); assay: EMSA
T9 sequence: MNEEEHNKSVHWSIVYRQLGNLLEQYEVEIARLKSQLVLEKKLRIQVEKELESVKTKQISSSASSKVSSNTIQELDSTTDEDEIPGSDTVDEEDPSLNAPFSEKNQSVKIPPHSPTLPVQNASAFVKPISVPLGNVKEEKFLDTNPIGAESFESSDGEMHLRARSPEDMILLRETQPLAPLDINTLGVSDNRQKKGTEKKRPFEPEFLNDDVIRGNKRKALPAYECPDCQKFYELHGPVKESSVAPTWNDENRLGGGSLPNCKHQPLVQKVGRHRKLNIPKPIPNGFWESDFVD

B1: full-length S. pombe Ctp1 (natural protein, UniProt O74986 1-294, looked up)
chain: MNEEEHNKSVHWSIVYRQLGNLLEQYEVEIARLKSQLVLEKKLRIQVEKELESVKTKQISSSASSKVSSNTIQELDSTTDEDEIPGSDTVDEEDPSLNAPFSEKNQSVKIPPHSPTLPVQNASAFVKPISVPLGNVKEEKFLDTNPIGAESFESSDGEMHLRARSPEDMILLRETQPLAPLDINTLGVSDNRQKKGTEKKRPFEPEFLNDDVIRGNKRKALPAYECPDCQKFYELHGPVKESSVAPTWNDENRLGGGSLPNCKHQPLVQKVGRHRKLNIPKPIPNGFWESDFVD
stoichiometry N (SEC-MALS [1]): 4

B2: Ctp1_(1–60) (domain or fragment, S. pombe, UniProt O74986 1-60, looked up)
chain: MNEEEHNKSVHWSIVYRQLGNLLEQYEVEIARLKSQLVLEKKLRIQVEKELESVKTKQIS
stoichiometry N (SEC-MALS [1]): 4

B3: MBP-Ctp1_(1–60) (domain or fragment, S. pombe, UniProt O74986 1-60, looked up)
chain: MNEEEHNKSVHWSIVYRQLGNLLEQYEVEIARLKSQLVLEKKLRIQVEKELESVKTKQIS
stoichiometry N (SEC-MALS [2]): 4

VYRQLGNLLEQYEVEIARLKSQLVLEKKLRIQVEKELESVKTKQIS (domain or fragment, S. pombe, UniProt O74986 15-60, looked up) [MBP-Ctp1_(15–60)]
stoichiometry N (SEC-MALS [2]): 2

B4: Ctp1 R32A K41A (natural protein, S. pombe, UniProt O74986 1-294, looked up)
chain: MNEEEHNKSVHWSIVYRQLGNLLEQYEVEIAALKSQLVLEAKLRIQVEKELESVKTKQISSSASSKVSSNTIQELDSTTDEDEIPGSDTVDEEDPSLNAPFSEKNQSVKIPPHSPTLPVQNASAFVKPISVPLGNVKEEKFLDTNPIGAESFESSDGEMHLRARSPEDMILLRETQPLAPLDINTLGVSDNRQKKGTEKKRPFEPEFLNDDVIRGNKRKALPAYECPDCQKFYELHGPVKESSVAPTWNDENRLGGGSLPNCKHQPLVQKVGRHRKLNIPKPIPNGFWESDFVD
binding result (SEC-MALS [3]): binds

B5: Ctp1_(5–60)-L51M (domain or fragment, S. pombe, UniProt O74986 5-60, looked up)
chain: EHNKSVHWSIVYRQLGNLLEQYEVEIARLKSQLVLEKKLRIQVEKEMESVKTKQIS
binding result (crystal structure): binds

B6: fork (ssDNA/splay) (mixed)
DNA 1: GCAGGAGGTGGCGTCGGGTGGACGGGTGGATTGAAATTTAGGCTGGCACGGTCT
DNA 2: AGACCGTGCCAGCCTAAATTTCAATCCAAGGTCTCGACTAACTCTAGTCGTTGT
Kd (Ctp1 61-294): 1000 nM

B7: 54 bp dsDNA (dsDNA)
DNA 1: GCAGGAGGTGGCGTCGGGTGGACGGGTGGATTGAAATTTAGGCTGGCACGGTCT
DNA 2: AGACCGTGCCAGCCTAAATTTCAATCCACCCGTCCACCCGACGCCACCTCCTGC
binding result (Ctp1 R275A): no binding | binding result (Ctp1 K231A): no binding | binding result (Ctp1 R273A): no binding | binding result (Ctp1 K219A): no binding | binding result (Ctp1 K276A): no binding

B8: 39 bp dsDNA (39bpf/39bpr) (dsDNA)
DNA 1: CAGAGTCATAATATGCAGGTGCAGGTTATTCATGCTCGG
DNA 2: CCGAGCATGAATAACCTGCACCTGCATATTATGACTCTG
binding result (Ctp1 151-294): no binding | binding result (Ctp1 1-150): no binding

B9: ssDNA 54 nt (ssDNA)
DNA: GCAGGAGGTGGCGTCGGGTGGACGGGTGGATTGAAATTTAGGCTGGCACGGTCT
binding result (Ctp1 WT): binds
